The target of assay [1] is T1, Sortilin receptor on HEK293 cells (UniProt Q99523 78-831, limits assumed).
T1 construct: whole, on cells
In words: told with the HEK293 cathepsin D assay (FIG. 5); no direct binding assay described.

For assay [2], the target named is Human TfR on HEK293 cells (human, UniProt P02786 1-760). In words: cell-based or functional assay.
Assay [3] deals with T2, Human TfR1 ECD, hexa-histidine tagged (human, UniProt P02786 89-760).
T2 construct: extracellular domain; Made in 293 cells, purified by IMAC and SEC; amine coupled to a CM3 chip; also called hTfR1; not shown: hexa-histidine tag
In words: SPR, Biacore T200, 25 C, His-tagged ECD amine coupled to CM3 chip, construct injected, 1:1 fit. The procedure:
(§1) To determine the binding kinetics and affinity of H09-PGRN and BACDE to human TfR1 (hTfR1), human TfR2 (hTfR2) and cynomolgus TfR1, binding affinities and kinetics for antibody to antigen were determined using a BIACORE® T200 instrument. The binding kinetics and affinity of antibodies H09-PGRN and BACDE to human TfR1 ECD were determined using surface plasmon resonance biosensor such as BIAcore® T200 (GE Healthcare, Piscataway, N.J.). Briefly described, BIAcore® T200 instrument is used to measure the binding kinetics for Sandwich Ex. 1 (H09-PGRN-C90.43) and Sandwich Ex. 2 (H09-PGRNΔpGF-C90.43 to hTfR1, hTfR2 and cyno Tfr1 via surface plasmon resonance (SPR) at 25° C. Samples are dissolved in 1×HBS-EP+running buffer (Teknova cat. #H802) and His tagged ECD of the hTfR1, hTfR2, and cyno TfR was amine coupled to the Cytiva CM3 Series S sensor chip.
(§2) Binding is evaluated using multiple analytical cycles. Each cycle is performed at 25° C. at a flow rate of 50 μl/min for ligand association and dissociation. Each kinetic cycle consists of the following steps: injection of the Sandwich Ex. 1 (H09-PGRN-C90.43) and Sandwich Ex. 2 (H09-PGRNΔpGF-C90.43) over all four flow cells (starting at 125 nM and using two-fold serial dilutions for each cycle) for 240 seconds and followed by 900 seconds for dissociation phase, and regeneration using 3 M MgCl2 […] over a 30 s contact time. Association (i e., kₒₙ) and dissociation rates (i.e., Koff) for each are evaluated using standard double referencing and fit to “1:1 (Langmuir) binding” model in the BiaEvaluation software in batch mode. The affinity (KD) is calculated from the binding kinetics according to the relationship K)=Koff/Kon.

Assay [4] concerns the target T3, Cynomolgus TfR1 ECD, His tagged (cynomolgus, UniProt H9EXL1 89-760 (rhesus entry)).
T3 construct: extracellular domain; Purchased from SYNGENE; also called cyno TfR1; cyno Tfr1; not shown: His tag
Described as above. The procedure:
as §1, §2

The target in assay [5] is T1, Sortilin receptor on HEK293 cells. The assay can be described thus: cell-based or functional assay.

Positions count from the first letter of the chain named.

B1: Sandwich Ex. 4 (H3.03-PGRN-C90.43) (Fab)
heavy: EVQLVESGGGLVKPGGSLRLSCVASGFTFSSYSMNWVRQAPGKGLEWVSSISRSSSYIYYADSVKGRFTISRDNAKNSLYLQMNSLRAEDTAVYYCARIHGYSNSDAFDKWGQGTLVTVSSASTKGPCVFPLAPSSKSTSGGTAALGCLVKDYFPEPVTVSWNSGALTSGVHTFPAVLQSSGLYSLSSVVTVPSSSLGTQTYICNVNHKPSNTKVDKKVEPKSCDKTHTGGGGQGGGGQGGGGQTRCPDGQFCPVACCLDPGGASYSCCRPLLDKWPTTLSRHLGGPCQVDAHCSAGHSCIFTVSGTSSCCPFPEAVACGDGHHCCPRGFHCSADGRSCFQRSGNNSVGAIQCPDSQFECPDFSTCCVMVDGSWGCCPMPQASCCEDRVHCCPHGAFCDLVHTRCITPTGTHPLAKKLPAQRTNRAVALSSSVMCPDARSRCPDGSTCCELPSGKYGCCPMPNATCCSDHLHCCPQDTVCDLIQSKCLSKENATTDLLTKLPAHTVGDVKCDMEVSCPDGYTCCRLQSGAWGCCPFTQAVCCEDHIHCCPAGFTCDTQKGTCEQGPHQVPWMEKAPAHLSLPDPQALKRDVPCDNVSSCPSSDTCCQLTSGEWGCCPIPEAVCCSDHQHCCPQGYTCVAEGQCQRGSEIVAGLEKMPARRASLSHPRDIGCDQHTSCPVGQTCCPSLGGSWACCQLPHAVCCEDRQHCCPAGYTCNVKARSCEKEVVSAQPATFLARSPHVGVKDVECGEGHFCHDNQTCCRDNRQGWACCPYRQGVCCADRRHCCPAGFRCAARGTKCLRREAPRWDAPLRDPALRQLLGGGGQGGGGQGGGGQEVQLLESGGGLVQPGGSLRLSCAASGRYIDETAVAWFRQAPGKGREFVAGIGGGVDITYYADSVKGRFTISRDNSKNTLYLQMNSLRPEDTAVYYCGARPGRPLITSKVADLYPYWGQGTLVTVSSPP
light: DIQMTQSPSAMSASVGDRVTITCRASQGISNYLAWFQQKPGKVPKRLIYAASSLQSGVPSRFSGSGSGTEFTLTISSLQPEDFATYYCLQHNSYPRTFGQGTKVEIKRTVAAPSVFIFPPSDEQLKSGTASVVCLLNNFYPREAKVQWKVDNALQSGNSQESVTEQDSKDSTYSLSSTLTLSKADYEKHKVYACEVTHQGLSSPVTKSFNRGEC
notes: Fab fusion with the H3.03 Fab in place of 8D3
For B1, the binding result in assay [1] was “no binding”. Also, in assay [2], the “Mature Cathepsin D levels in cell lysate (ELISA), HEK293 cells, 100 ng/mL, 24 hours” value was found to be 66.

B2: Sandwich Ex. 2 (H09-PGRNΔpGF-C90.43) (Fab)
heavy: EVQLVESGGGLVKPGGSLRLSCVASGFTFSSYSMNWVRQAPGKGLEWVSSISSSSSYIYYADSVKGRFTISRDNAKNSLYLQMNSLRAEDTAVYYCARRHGYSNSDAFDNWGQGTLVTVSSASTKGPSVFPLAPSSKSTSGGTAALGCLVKDYFPEPVTVSWNSGALTSGVHTFPAVLQSSGLYSLSSVVTVPSSSLGTQTYICNVNHKPSNTKVDKKVEPKSCDKTGGGGQGGGGQGGGGQTPTGTHPLAKKLPAQRTNRAVALSSSVMCPDARSRCPDGSTCCELPSGKYGCCPMPNATCCSDHLHCCPQDTVCDLIQSKCLSKENATTDLLTKLPAHTVGDVKCDMEVSCPDGYTCCRLQSGAWGCCPFTQAVCCEDHIHCCPAGFTCDTQKGTCEQGPHQVPWMEKAPAHLSLPDPQALKRDVPCDNVSSCPSSDTCCQLTSGEWGCCPIPEAVCCSDHQHCCPQGYTCVAEGQCQRGSEIVAGLEKMPARRASLSHPRDIGCDQHTSCPVGQTCCPSLGGSWACCQLPHAVCCEDRQHCCPAGYTCNVKARSCEKEVVSAQPATFLARSPHVGVKDVECGEGHFCHDNQTCCRDNRQGWACCPYRQGVCCADRRHCCPAGFRCAARGTKCLRREAPRWDAPLRDPALRQLLGGGGQGGGGQGGGGQEVQLLESGGGLVQPGGSLRLSCAASGRYIDETAVAWFRQAPGKGREFVAGIGGGVDITYYADSVKGRFTISRDNSKNTLYLQMNSLRPEDTAVYYCGARPGRPLITSKVADLYPYWGQGTLVTVSSPP
light: B1 light with N31H, A34V, R96W
notes: also called H09 Fab-PGRNΔpGF-C90.43; H09-dPGF-C90.43
In general, Kd refers to the free concentration of one partner at which half of the binding sites on the other are occupied at equilibrium, for simple one-to-one binding. Read a low Kd as higher affinity. Broadly, the koff is a measure of how fast the partners let go of each other. A higher koff goes with a short-lived complex. Usually kon stands for the rate constant with which the complex forms. B2: in assay [3], the dissociation constant (Kd) is 7.12 nM, the off-rate constant (koff) came out at 0.0052 s⁻¹ and the on-rate (kon) worked out at 730000 M⁻¹ s⁻¹. In assay [4], this molecule returned an equilibrium dissociation constant (Kd) of 13 nM, an off-rate (koff) of 0.00318 s⁻¹ and an on-rate constant (kon) of 244000 M⁻¹ s⁻¹.

B3: Sandwich Ex. 1 (H09-PGRN-C90.43) (Fab)
heavy: B1 heavy with R53S, I99R, K110N, C128S
light: B1 light with N31H, A34V, R96W
notes: also called H09 Fab-PGRN-C90.43
Turning to B3, in assay [3], the equilibrium dissociation constant (Kd) came out at 7.29 nM, the off-rate constant (koff) came out at 0.00434 s⁻¹ and the on-rate (kon) amounted to 595000 M⁻¹ s⁻¹. In assay [4], this molecule came in with an equilibrium dissociation constant (Kd) of 9.7 nM, a koff of 0.0047 s⁻¹ and a kon of 485000 M⁻¹ s⁻¹.

B4: Sandwich Ex. 3 (8D3-PGRN-C90.43) (Fab)
heavy: EVQLVESGGGLVQPGNSLTLSCVASGFTFSNYGMHWIRQAPKKGLEWIAMIYYDSSKMNYADTVKGRFTISRDNSKNTLYLEMNSLRSEDTAMYYCAVPTSHYVVDVWGQGVSVTVSSASTKGPCVFPLAPSSKSTSGGTAALGCLVKDYFPEPVTVSWNSGALTSGVHTFPAVLQSSGLYSLSSVVTVPSSSLGTQTYICNVNHKPSNTKVDKKVEPKSCDKTHTGGGGQGGGGQGGGGQTRCPDGQFCPVACCLDPGGASYSCCRPLLDKWPTTLSRHLGGPCQVDAHCSAGHSCIFTVSGTSSCCPFPEAVACGDGHHCCPRGFHCSADGRSCFQRSGNNSVGAIQCPDSQFECPDFSTCCVMVDGSWGCCPMPQASCCEDRVHCCPHGAFCDLVHTRCITPTGTHPLAKKLPAQRTNRAVALSSSVMCPDARSRCPDGSTCCELPSGKYGCCPMPNATCCSDHLHCCPQDTVCDLIQSKCLSKENATTDLLTKLPAHTVGDVKCDMEVSCPDGYTCCRLQSGAWGCCPFTQAVCCEDHIHCCPAGFTCDTQKGTCEQGPHQVPWMEKAPAHLSLPDPQALKRDVPCDNVSSCPSSDTCCQLTSGEWGCCPIPEAVCCSDHQHCCPQGYTCVAEGQCQRGSEIVAGLEKMPARRASLSHPRDIGCDQHTSCPVGQTCCPSLGGSWACCQLPHAVCCEDRQHCCPAGYTCNVKARSCEKEVVSAQPATFLARSPHVGVKDVECGEGHFCHDNQTCCRDNRQGWACCPYRQGVCCADRRHCCPAGFRCAARGTKCLRREAPRWDAPLRDPALRQLLGGGGQGGGGQGGGGQEVQLLESGGGLVQPGGSLRLSCAASGRYIDETAVAWFRQAPGKGREFVAGIGGGVDITYYADSVKGRFTISRDNSKNTLYLQMNSLRPEDTAVYYCGARPGRPLITSKVADLYPYWGQGTLVTVSSPP
light: DIQMTQSPASLSASLEEIVTITCQASQDIGNWLAWYQQKPGKSPQLLIYGATSLADGVPSRFSGSRSGTQFSLKISRVQVEDIGIYYCLQAYNTPWTFGGGTKLELKRTVAAPSVFIFPPSDEQLKSGTASVVCLLNNFYPREAKVQWKVDNALQSGNSQESVTEQDSKDSTYSLSSTLTLSKADYEKHKVYACEVTHQGLSSPVTKSFNRGEC
notes: Fab fusion with the 8D3 Fab in place of H09
For the molecule B4, in assay [1], the binding result is listed as “no binding”. Also, the “Mature Cathepsin D levels in cell lysate (ELISA), HEK293 cells, 100 ng/mL, 24 hours” value in assay [5] is 100.

The values above are taken from patent US20250000992A1 (Eli Lilly, published 2025).
